From article PMC10764278

Molecular target: recombinant human tau(297–391) (human) (UniProt P10636)
Test: co-sedimentation; pelletable tau: whole assembly reaction centrifuged at 400,000g, 20 °C, 15 min, pellet and supernatant quantified by SDS-PAGE; 720 min (Fig. 2b, PHF reaction)

## recombinant human tau(297–391) (from UniProt P10636-8 297-391) (domain or fragment)
  percent of tau pelletable: 80 to 90%
